Where two headings read alike, the source gives them in different places.

One may read the stoichiometry N as the number of molecules, sites or subunits per partner or assembly.

In assay [1] the target is S. pombe Mre11 catalytic domain, SpMre11_(15–413) (S. pombe). Nature of the assay: crystal structure.
Assay [2] shares this target. Nature of the assay: crystal structure. The source holds these as a separate data set.
For assay [3], the target named is SpMre11^cd R85A (S. pombe).
In assay [4] the target is S. pombe Mre11 catalytic domain, SpMre11_(15–413) (S. pombe). Nature of the assay: crystal structure. This is another data set of the same source.

Regarding “S. pombe Mre11 catalytic domain, SpMre11_(15–413) (domain or fragment)”, the stoichiometry N in assay [1] and in assay [2] was 2 each time.

As to SpMre11^cd R85A (domain or fragment), the stoichiometry N in assay [3] was 2.

B1: S. pombe Nbs1 Mre11 interacting region, residues 474–531 (domain or fragment)
chain: ESEDDKAFEENRRLRNLGSVEYIRIMSSEKSNANSRHTSKYYSGRKNFKKFQKKASQK
Take B1: the stoichiometry N (Nbs1 per Mre11 (2:2)) in assay [4] was determined as 1.

These data come from PMC3392456.
